T1: VGLL1 (Vestigial-like 1) peptide on HLA-A*01:01 (human)
T1 peptide: LSELETPGKY


Assays:
[1] = target: T1, VGLL1 (Vestigial-like 1) peptide on …; assay: multimer staining
HLA-A*0101 = target: T2, HLA-A*0101 (human); assay: HLA class I immunoprecipitation, acid elution, tandem MS
T2 construct: whole, on cells; The peptide was eluted from total HLA class I immunoprecipitated with W6/32; also called HLA-A1; HLAA1
Method: Protein A/G Ultralink resin beads were used to immunoprecipate HLA class I molecules and HLA-bound peptides were then eluted with 0.1M acetic acid. HLA-A, B, C isolation was confirmed by Western blot analysis, then HLA-positive elutes were analyzed by tandem mass spectrometry (MS/MS). HLA class I protein recovery was semi-quantitatively assessed by rating Western blot band intensity on a scale from 0 (not detectable) to 4 (highest intensity). Tumor-associated HLA-bound peptides were injected onto HPLC system (Dionex 3000 RSLC), and separated by reverse-phase chromatography in 0.1% formic acid water-acetonitrile on 1.8 μm C18 (Agilent Technologies) in the MS/MS discovery phase. Peptides were analyzed on an Orbitrap Elite mass spectrometer (Thermo-Fisher) using data-dependent acquisition.

| Binder | binding result [1] | binding result (HLA-A*0101) |
| --- | --- | --- |
| VGLL1 TCR #1 (TCR, V domains shown) Valpha: AQKVTQAQTEISVVEKEDVTLDCVYETRDTTYYLFWYKQPPSGELVFLIRRNSFDEQNEISGRYSWNFQKSTSSFNFTITASQVVDSAVYFCALSPGANSKLTFGKGITLSVRP Vbeta: DAGVTQSPTHLIKTRGQQVTLRCSPKSGHDTVSWYQQALGQGPQFIFQYYEEEERQRGNFPDRFSGHQFPNYSSELNVNALLLGDSALYLCASSVGTGITEAFFGQGTRLTVV | recognises |  |
| VGLL1 TCR #2 (TCR, V domains shown) Valpha: ENVEQHPSTLSVQEGDSAVIKCTYSDSASNYFPWYKQELGKRPQLIIDIRSNVGEKKDQRIAVTLNKTAKHFSLHITETQPEDSAVYFCAARGLTGGGNKLTFGTGTQLKVEL Vbeta: GVTQSPTHLIKTRGQQVTLRCSPKSGHDTVSWYQQALGQGPQFIFQYYEEEERQRGNFPDRFSGHQFPNYSSELNVNALLLGDSALYLCASSVGTGITEAFFGQGTRLTVV | recognises |  |
| LSELETPGKY (This is the native peptide eluted from immunoprecipitated HLA class I. The 13C/15N-lysine labeled synthetic peptide served only as the MS standard; also called VGLL1 231-240 peptide; VGLL1 peptide) [VGLL1-derived 10-mer peptide LSELETPGKY] |  | binds |

Second part, the binder after the results:

| binding result [1] | binding result (HLA-A*0101) | Binder |
| --- | --- | --- |
| recognises |  | VGLL1 TCR #3 (TCR, V domains shown) Valpha: ENVEQHPSTLSVQEGDSAVIKCTYSDSASNYFPWYKQELGKRPQLIIDIRSNVGEKKDQRIAVTLNKTAKHFSLHITETQPEDSAVYFCAAIPNSGGYQKVTFGIGTKLQVIP Vbeta: GVTQSPTHLIKTRGQQVTLRCSPKSGHDTVSWYQQALGQGPQFIFQYYEEEERQRGNFPDRFSGHQFPNYSSELNVNALLLGDSALYLCASSVGTGITEAFFGQGTRLTVV |
| recognises |  | VGLL1 TCR #4 (TCR, V domains shown) Valpha: QQQVKQSPQSLIVQKGGISIINCAYENTAFDYFPWYQQFPGKGPALLIAIRPDVSEKKEGRFTISFNKSAKQFSLHIMDSQPGDSATYFCAAVRYNFNKFYFGSGTKLNVKP Vbeta: GVTQSPTHLIKTRGQQVTLRCSPKSGHDTVSWYQQALGQGPQFIFQYYEEEERQRGNFPDRFSGHQFPNYSSELNVNALLLGDSALYLCASSVGTGITEAFFGQGTRLTVV |

Reference: patent US20230212256A1 (University of Texas, published 2023)
